Results on five molecules are retold here after patent US20220372138A1 (IOMX THERAPEUTICS, published 2022).

The EC50 (read off the curve) is the midpoint of the concentration-response curve. Low readings indicate a more potent agent, high ones a less potent agent. In general, EC50 refers to the concentration needed to bring the measured effect to its halfway point. A low value points to greater potency.

Experiment [1] addresses T1, human IGSF11 (VSIG3) ECD, His-tagged (human, UniProt Q5DX21 23-241).
T1 construct: in part bought (SinoBiological 13094-H08H); also called HIS-IGSF11; IGSF11-HIS; not shown: His tag
T1 sequence: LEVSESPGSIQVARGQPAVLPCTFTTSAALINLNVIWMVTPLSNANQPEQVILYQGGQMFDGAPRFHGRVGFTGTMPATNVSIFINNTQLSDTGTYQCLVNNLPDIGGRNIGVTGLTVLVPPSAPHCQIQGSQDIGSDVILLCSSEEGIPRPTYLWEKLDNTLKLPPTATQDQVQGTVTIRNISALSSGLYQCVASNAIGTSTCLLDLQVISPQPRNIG
The experiment in a line: ELISA: IGSF11-HIS coated, IgG1 dilution series, anti-human antibody-HRP, TMB.

Experiment [2] deals with T1, human IGSF11 (VSIG3) ECD, His-tagged. The experiment in a line: IgG1 ELISA EC50 <0.02 nM. Background: An ELISA detects its analyte on a solid surface through an enzyme-linked reagent.
For experiment [3], the target named is T2, IgC2 domain of human IGSF11 fused to murine IgG2a Fc (human, UniProt Q5DX21 137-241).
T2 construct: not shown: murine IgG2a Fc-region
T2 sequence: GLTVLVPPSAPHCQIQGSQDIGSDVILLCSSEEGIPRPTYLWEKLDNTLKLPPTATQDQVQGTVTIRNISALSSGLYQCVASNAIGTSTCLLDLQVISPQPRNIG
Kind of experiment: IgG ELISA.

The target in experiment [4] is T3, full-length ECD of human IGSF11 fused to murine Fc (human, UniProt Q5DX21 23-241).
T3 construct: also called Fc-fusion IGSF11 ECD; not shown: murine Fc
T3 sequence: T1 sequence
Kind of experiment: IgG ELISA.

The target in experiment [5] is T4, extracellular domain (ECD) of human IGSF11 (VSIG3), recombinant (human, UniProt Q5DX21 23-241).
T4 construct: biotinylated where captured on streptavidin; tags of the reagent not always stated; also called IGSF11 (ECD domain); ECD-IGSF11
T4 sequence: T1 sequence
The experiment in a line: BLI apparent affinity, IgG on AHC sensor, IGSF11 ECD 100 nM.
Source text: Briefly, various APBs were loaded on an optical biosensor via a commercially available Capture System (AHC sensors, ForteBio).

Experiment [6] concerns the target T5, human IGSF11 (VSIG3) expressed on cells (human, UniProt Q5DX21 23-431).
T5 sequence: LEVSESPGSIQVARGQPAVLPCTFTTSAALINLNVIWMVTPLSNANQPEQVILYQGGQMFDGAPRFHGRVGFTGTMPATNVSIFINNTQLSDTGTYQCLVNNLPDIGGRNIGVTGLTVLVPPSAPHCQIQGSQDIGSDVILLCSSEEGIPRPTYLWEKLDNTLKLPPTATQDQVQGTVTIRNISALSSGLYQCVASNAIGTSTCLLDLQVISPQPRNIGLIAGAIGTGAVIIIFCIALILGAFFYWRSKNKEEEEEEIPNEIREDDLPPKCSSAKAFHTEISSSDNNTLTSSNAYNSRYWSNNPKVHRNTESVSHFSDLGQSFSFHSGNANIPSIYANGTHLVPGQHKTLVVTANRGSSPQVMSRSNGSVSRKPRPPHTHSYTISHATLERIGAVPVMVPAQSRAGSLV
Kind of experiment: FACS, DMS 273 cells with scrambled control siRNA (SC).

For experiment [7], the target named is T4, extracellular domain (ECD) of human …. The experiment in a line: SPR.
Experiment [8] has as its target T1, human IGSF11 (VSIG3) ECD, His-tagged. The experiment in a line: blocking ELISA: VSIR-Fc immobilised, IgG dilution series pre-incubated with 200 nM IGSF11 ECD-His, bound IGSF11 detected with anti-His-HRP.
Procedure: All binding steps were for 1 hour at room temperature, and all washing steps were three times washing with PBS/Tween (0.05%).
Experiment [9] deals with T5, human IGSF11 (VSIG3) expressed on cells. The experiment in a line: FACS, M579-A2-luc cells with IGSF11 siRNA (KD, knock-down control). For orientation: A flow cytometer gives signals particle by particle.
Experiment [10] shares this target. Kind of experiment: FACS, M579-A2-luc cells with scrambled control siRNA (SC).
For experiment [11], the target named is T3, full-length ECD of human IGSF11 fused …. Kind of experiment: ELISA: Fc-fusion IGSF11 ECD coated, IgG dilution series, anti-human IgG-HRP.
Procedure: (§1) Binding of IgG antibodies to each of the full-length ECD of IGSF11, to the IgV domain of IGSF11 and to the IgC2 domain of IGSF11, was tested in the ELISA assay as follows: briefly, recombinant domains of Fc-fusion IGSF11 proteins were coated at 2 ug/mL on a 384-well Maxisorp plate. The surface was blocked with 2% (w/v) skim milk powder in PBST. […] After removing all unbound antibodies by 3 wash cycles with PBST, bound IgG ABPs were detected with a goat anti-human IgG antibody conjugated with horseradish peroxidase. After three wash cycles with PBST the ELISA was developed with TMB substrate.
Experiment [12] has as its target T5, human IGSF11 (VSIG3) expressed on cells. The experiment in a line: IgG1 FACS DMS 273.
Experiment [13] deals with T4, extracellular domain (ECD) of human …. The experiment in a line: BLI. (In general: Biolayer interferometry detects binding as a change in optical thickness at a sensor tip.)
In experiment [14] the target is T6, IgV domain of human IGSF11 fused to murine IgG2a Fc (human, UniProt Q5DX21 23-143).
T6 construct: not shown: murine IgG2a Fc-region
T6 sequence: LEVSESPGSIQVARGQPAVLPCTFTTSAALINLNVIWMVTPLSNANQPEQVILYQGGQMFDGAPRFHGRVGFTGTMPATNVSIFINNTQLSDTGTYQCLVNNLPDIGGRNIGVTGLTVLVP
The experiment in a line: BLI: IgV domain-mFc captured on the sensor, IgG1 in solution, concentrations not given [Cont.) D].

Experiment [15] has as its target T2, IgC2 domain of human IGSF11 fused to …. The experiment in a line: ELISA: IgC2 domain-mFc fusion coated, IgG dilution series, anti-human IgG-HRP.
Procedure: as §1
Experiment [16] has as its target T5, human IGSF11 (VSIG3) expressed on cells. The experiment in a line: FACS, DMS 273 cells with IGSF11 siRNA (KD, knock-down control).
The target is the same in experiment [17]. Kind of experiment: IgG1 FACS HEK-OE.
Experiment [18] deals with T6, IgV domain of human IGSF11 fused to …. Kind of experiment: IgG ELISA.
Procedure: as §1
Experiment [19] addresses T1, human IGSF11 (VSIG3) ECD, His-tagged. Kind of experiment: IgG1 ELISA EC50 0.02-0.05 nM.
Experiment [20] deals with T2, IgC2 domain of human IGSF11 fused to …. The experiment in a line: BLI: IgC2 domain-mFc captured on the sensor, IgG1 in solution, concentrations not given [Cont.) D].
Experiment [21] deals with T3, full-length ECD of human IGSF11 fused …. Kind of experiment: ELISA: Fc-fusion IGSF11 ECD coated, IgG dilution series, anti-human IgG-HRP. The source holds these as a separate data set.
Procedure: as §1
For experiment [22], the target named is T7, murine IGSF11 expressed on cells (mouse, UniProt P0C673 23-428).
T7 construct: MC38-IGSF11, CT26-IGSF11, MC38-wt (naturally expresses murine IGSF11)
T7 sequence: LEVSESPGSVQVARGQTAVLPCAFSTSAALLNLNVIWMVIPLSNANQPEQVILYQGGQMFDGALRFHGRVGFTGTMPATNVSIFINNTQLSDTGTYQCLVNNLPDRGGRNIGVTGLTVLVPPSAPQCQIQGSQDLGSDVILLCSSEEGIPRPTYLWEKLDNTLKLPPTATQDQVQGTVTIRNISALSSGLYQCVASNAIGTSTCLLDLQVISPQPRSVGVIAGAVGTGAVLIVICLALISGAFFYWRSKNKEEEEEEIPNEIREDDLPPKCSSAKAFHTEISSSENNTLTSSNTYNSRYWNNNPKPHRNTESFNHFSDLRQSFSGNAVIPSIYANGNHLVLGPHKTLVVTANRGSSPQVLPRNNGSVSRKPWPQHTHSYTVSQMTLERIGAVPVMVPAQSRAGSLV
The experiment in a line: IgG FACS MC38-wt.
Source text: (§2) Unbound antibodies were removed by washing the cells three time with FACS buffer. Bound antibodies were detected with a mouse anti-human IgG antibody conjugated with AlexaFluor647.

The target in experiment [23] is T5, human IGSF11 (VSIG3) expressed on cells. The experiment in a line: IgG FACS Colo741.
Source text: as §2
In experiment [24] the target is T7, murine IGSF11 expressed on cells. The experiment in a line: IgG FACS MC38-IGSF11.
Source text: as §2
For experiment [25] the target is unchanged. The experiment in a line: IgG FACS CT26-IGSF11.
Source text: as §2
Experiment [26] addresses T2, IgC2 domain of human IGSF11 fused to …. The experiment in a line: IgG ELISA. The source holds these as a separate data set.
The target of experiment [27] is T3, full-length ECD of human IGSF11 fused …. The experiment in a line: IgG ELISA. The source holds these as a separate data set.
The target of experiment [28] is T5, human IGSF11 (VSIG3) expressed on cells. The experiment in a line: IgG FACS, human IGSF11 cell lines of Table 13.4; human IGSF11 cell lines (Colo741, MDA-MB-231-IGSF11).
Experiment [29] concerns the target T7, murine IGSF11 expressed on cells. The experiment in a line: IgG FACS, murine IGSF11 cell lines of Table 13.4; murine IGSF11 cell lines (MC38-IGSF11, MC38-wt).
The target of experiment [30] is T5, human IGSF11 (VSIG3) expressed on cells. The experiment in a line: IgG FACS MDA-MB-231-IGSF11.
Source text: as §2

Where a chain is given by its changes, count along the chain named. Where two headings read alike, the source gives them in different places. A value given as a limit tells only on which side of the number the result lay.

B1: A-006 (IgG1 format) (antibody, V domains shown)
VH: EVQLVESGGGLIQPGGSLRLSCAASGFTVSSNYMSWVRQAPGKGLEWVSVIYSGGSTYYADSVKGRFTISRDNSKNTLYLQMNSLRAEDTAVYYCARGNPYYYGDLQVNFDYWGQGTLVTVSS
VL: QAVVTQEPSLTVSPGGTVTLTCASSTGAVTSGYYPNWFQQKPGQAPRPLIYSTSNKHSWTPARFSGSLLGGKAALTLSGVQPDDEAEYYCLLYYGGDWVFGGGTKLTVL
notes: human IgG1 format; also called A-006-like ABP
Turning to B1, the “EC50 (read off the curve)” value in experiment [1] is ~0.01 nM; in experiment [11], ~0.5 nM; in [15], ~0.4 nM. The concentration giving a half-maximal response (EC50) in experiment [2] was < 0.02 nM; in experiment [3], < 1 nM; in experiment [4] it was < 1 nM; in experiment [12], > 50 nM; in experiment [17], 10 to 50 nM. Moreover, the Kd in experiment [5] was < 15 nM; in experiment [7] it was 250 to 500 nM; in experiment [13], 1 to 10 nM. Also, the “% binding (FACS heat-map)” value was 81.1% in experiment [6], 2.59% in experiment [9], 75.3% in experiment [10] and 5.72% in experiment [16]. Moreover, in [8], the “IC50 (read off the curve)” value is ~4 nM. Besides, the binding result in [14] is listed as “no binding”.

B2: A-024 (IgG1 format) (antibody, V domains shown)
VH: QMQLVQSGAEVKKPGSSVKVSCKASGGTFSSYAISWVRQAPGQGLEWMGWISAYNGNTNYAQKLQGRVTMTTDTSTSTAYMELRSLRSDDTAVYYCASLGSYGYTGAFDIWGQGTMATVSS
VL: QSALTQPASVSGSPGQSITISCTGTSSDVGGYNYVSWYQQHPGKAPKLMIYEVSNRPSGVSNRFSGSKSGNTASLTISGLQAEDEADYYCSSYTSSSTLVVFGGGTKLTVL
notes: also called A-024-like ABP
With B2, the EC50 is < 1 nM in experiment [18], < 1 nM in [4], 0.02 to 0.05 nM in experiment [19] and < 10 nM in [12]. The Kd in experiment [7] is > 500 nM. The binding result in [20] was “no binding”. In addition, the concentration for a half-maximal effect (EC50 (read off the curve)) in [21] is ~0.4 nM.

B3: D-116 (IgG format) (antibody, V domains shown)
VH: EVQLLESGGGLVQPGGSLRLSCAASGFTFKHSAISWVRQAPGKGLEWVSAISYGGGSQYYADSVKGRFTISRDNSKNTLYLQMNSLRAEDTAVYYCARDSRDAYGVAFDLWGQGTMVTVSS
VL: ASVLTQPPSVSAAPGQKVTISCSGSSSNIGNNYVSWYQQLPGTAPKLLIYDNNKRPSGIPDRFSGSKSGTSATLGITGLQAEDEADYYCQSYGHRSFVFGGGTKLTVL
For B3, the EC50 is < 0.1 nM in [22] and < 0.5 nM in experiment [23].

B4: C-005 (IgG1 format) (antibody, V domains shown)
VH: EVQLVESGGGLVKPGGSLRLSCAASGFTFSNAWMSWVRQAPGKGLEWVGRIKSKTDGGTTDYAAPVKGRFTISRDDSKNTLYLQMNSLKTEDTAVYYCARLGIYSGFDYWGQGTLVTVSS
VL: SYELTQPPSVSVSPGQTASITCSGDKLGDKYASWYQQKPGQSPVLVIYQDSKRPSGIPERFSGSNSGNTATLTISGTQAEDEADYYCHSYTGKPSQVVFGGGTKLTVL
Regarding B4, the Kd in [5] is < 15 nM. The EC50 in experiment [24] is < 20 nM; in experiment [25], < 20 nM; in experiment [26], < 1 nM; in [27] it was < 1 nM; in experiment [28], ~2 nM; in experiment [29], ~2 nM. Further, the EC50 in [30] was < 10 nM.

B5: D-223 (IgG format) (antibody, V domains shown)
VH: EVQLVESGGGLVKPGGSLRLSCAASGFTFSHAWISWVRQAPGKGLEWVGQIKGGPGSGGTSYAEPVKGRFTISRDDSKNTLYLQMNSLKTEDTAVYYCARLGIYSGFDYWGQGTLVTVSS
VL: B4 VL with T91L, G92H, K93L, S95P, Q96T
Turning to B5, the EC50 in [22] and in [23] was < 0.5 nM each time.
